In patent US20010034326A1 (UNIVERSITY OF NEW MEXICO, published 2001):
Bridge positions count the residues as written; N and C are the ends. Ends that are not written are not given here.

B1: consensus peptide CLLRMRSIC (SEQ ID NO: 1), cyclized in the disulfide-linked form (peptide)
peptide: CLLRMRSIC
modifications: disulfide 1-9
notes: Synthesized by Biopeptide; consensus derived from phage display on ICAM-1

The binders below were run against T1, ICAM-1 expressed on cells (JY cells; stimulated endothelial cells) (UniProt P05362 28-532, limits assumed) (assay: cell-based or functional assay).
T1 sequence (P05362 28-532 limits assumed): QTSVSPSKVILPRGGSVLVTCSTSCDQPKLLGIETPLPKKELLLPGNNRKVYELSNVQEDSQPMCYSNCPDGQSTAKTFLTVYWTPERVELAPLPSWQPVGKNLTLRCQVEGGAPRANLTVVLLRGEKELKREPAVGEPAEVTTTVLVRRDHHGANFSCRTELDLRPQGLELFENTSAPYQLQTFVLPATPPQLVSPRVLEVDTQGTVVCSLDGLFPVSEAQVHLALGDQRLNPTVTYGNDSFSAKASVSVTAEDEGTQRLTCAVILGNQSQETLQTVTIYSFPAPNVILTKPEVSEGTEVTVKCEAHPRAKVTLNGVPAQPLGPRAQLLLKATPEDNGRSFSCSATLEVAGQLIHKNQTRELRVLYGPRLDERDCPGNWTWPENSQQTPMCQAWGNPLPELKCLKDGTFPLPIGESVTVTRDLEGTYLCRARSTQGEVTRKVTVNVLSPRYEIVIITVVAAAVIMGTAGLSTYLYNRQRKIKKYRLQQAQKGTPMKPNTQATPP

| Binder | Percent Inhibition [percent] | Percent JY Aggregation [percent] |
| --- | --- | --- |
| CLLRMRSAC (disulfide 1-9) [CLLRMRSAC (SEQ ID NO: 40), cyclic disulfide-linked peptide] | 61 | 29 |
| CLLRMRAIC (disulfide 1-9) [CLLRMRAIC (SEQ ID NO: 39), cyclic disulfide-linked peptide] | 27 | 56 |
| CLRLSRIMC (disulfide 1-9) [randomized cyclic peptide CLRLSRIMC (SEQ ID NO: 56)] | 4 | 74 |
| CALRMRSIC (disulfide 1-9) [CALRMRSIC (SEQ ID NO: 34), cyclic disulfide-linked peptide] | 7 | 71 |
| CLLRMASIC (disulfide 1-9) [CLLRMASIC (SEQ ID NO: 38), cyclic disulfide-linked peptide] | 11 | 68 |
| B1 | 46 | 41 |
| CLLRARSIC (disulfide 1-9) [CLLRARSIC (SEQ ID NO: 37), cyclic disulfide-linked peptide] | 5 | 72 |
| CLARMRSIC (disulfide 1-9) [CLARMRSIC (SEQ ID NO: 35), cyclic disulfide-linked peptide] | 9 | 69 |

Target: T1, ICAM-1 expressed on cells (JY cells; …)
Experiment: cell-based or functional assay
Remark: another data set of the same source

| Binder | Percent Inhibition [percent] | Percent JY Aggregation [percent] |
| --- | --- | --- |
| CLLRMRSVC (disulfide 1-9) [CLLRMRSVC (SEQ ID NO: 48), cyclic disulfide-linked peptide] | 92 | 4 |
| CLRLSRIMC (disulfide 1-9) [randomized cyclic peptide CLRLSRIMC (SEQ ID NO: 56)] | -3.6 | 57 |
| CLLRMKSAC (disulfide 1-9) [CLLRMKSAC (SEQ ID NO: 46), cyclic disulfide-linked peptide] | 90 | 6 |
| CLVRMRSAC (disulfide 1-9) [CLVRMRSAC (SEQ ID NO: 41), cyclic disulfide-linked peptide] | 0 | 55 |
| CILRMRSAC (disulfide 1-9) [CILRMRSAC (SEQ ID NO: 43), cyclic disulfide-linked peptide] | 92 | 4 |
| CLLRMRSLC (disulfide 1-9) [CLLRMRSLC (SEQ ID NO: 47), cyclic disulfide-linked peptide] | -12 | 61 |
| CLIRMRSAC (disulfide 1-9) [CLIRMRSAC (SEQ ID NO: 44), cyclic disulfide-linked peptide] | 93 | 4 |
| CLLKMRSAC (disulfide 1-9) [CLLKMRSAC (SEQ ID NO: 45), cyclic disulfide-linked peptide] | 94 | 3 |
| B1 | 45 | 30 |
| CVLRMRSAC (disulfide 1-9) [CVLRMRSAC (SEQ ID NO: 42), cyclic disulfide-linked peptide] | 56 | 24 |

Target: T1, ICAM-1 expressed on cells (JY cells; …)
Experiment: cell-based or functional assay
Remark: another data set of the same source

| Binder | IC50, inhibition of JY cell aggregation [µM] | IC50 for cell aggregation [µM] |
| --- | --- | --- |
| B1 | 500 | 800 |

Each binder was assayed against T2, ICAM-1 (intracellular adhesion molecule 1), as used in the ELISA of monovalent ICAM-1 binding (human, UniProt P05362 28-480, limits assumed) (assay: ELISA of monovalent ICAM-1 binding; for example inhibition of 84H10 binding to ICAM-1).
T2 construct: also called purified ICAM-1
T2 sequence (P05362 28-480 limits assumed): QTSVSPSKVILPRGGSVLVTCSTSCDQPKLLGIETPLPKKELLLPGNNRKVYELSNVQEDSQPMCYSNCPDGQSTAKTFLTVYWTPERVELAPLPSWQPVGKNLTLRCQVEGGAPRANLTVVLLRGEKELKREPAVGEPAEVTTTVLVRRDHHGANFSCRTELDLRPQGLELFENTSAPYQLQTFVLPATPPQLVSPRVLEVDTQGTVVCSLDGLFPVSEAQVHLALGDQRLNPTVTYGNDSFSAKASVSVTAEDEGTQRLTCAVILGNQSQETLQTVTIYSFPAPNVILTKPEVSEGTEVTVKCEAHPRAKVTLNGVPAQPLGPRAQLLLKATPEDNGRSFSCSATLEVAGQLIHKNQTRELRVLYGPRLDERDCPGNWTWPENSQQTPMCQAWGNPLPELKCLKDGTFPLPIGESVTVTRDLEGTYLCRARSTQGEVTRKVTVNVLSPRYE

| Binder | IC50 [µM] |
| --- | --- |
| B1 | 0.25 |

Target: T1, ICAM-1 expressed on cells (JY cells; …)
Experiment: cell-based or functional assay
Remark: another data set of the same source

| Binder | Cells/mm^2, firm attachment of neutrophils to stimulated endothelial cells in a parallel plate flow chamber [cells/mm^2] | Percent Inhibition of firm attachment of neutrophils to stimulated endothelial cells [percent] |
| --- | --- | --- |
| CLRLSRIMC (disulfide 1-9) [randomized cyclic peptide CLRLSRIMC (SEQ ID NO: 56)] | 617 | 25 |
| CLLRMKSAC (disulfide 1-9) [CLLRMKSAC (SEQ ID NO: 46), cyclic disulfide-linked peptide] | 283 | 66 |
| B1 | 439 | 47 |
